Data as given in article PMC11320123, “Unveiling the molecular mechanisms of the type IX secretion system's response regulator: Structural and functional insights” (PNAS Nexus, 2024).
Changes are numbered by the printed parent chain. Names and notes keep the numbering of the source.

How the values were obtained:
[1] = molecular target: T1, THB + APS truncation mutant of PorXFJ (Flavobacterium johnsoniae, UniProt A5FFU4); experiment: phosphodiesterase assay; format: biochemical; details: zinc-dependent
T1 construct: gene Fjoh_2906; REC domain truncated, residues 126–end; ~46 kDa; E. coli BL21
T1 sequence (A5FFU4 126-517): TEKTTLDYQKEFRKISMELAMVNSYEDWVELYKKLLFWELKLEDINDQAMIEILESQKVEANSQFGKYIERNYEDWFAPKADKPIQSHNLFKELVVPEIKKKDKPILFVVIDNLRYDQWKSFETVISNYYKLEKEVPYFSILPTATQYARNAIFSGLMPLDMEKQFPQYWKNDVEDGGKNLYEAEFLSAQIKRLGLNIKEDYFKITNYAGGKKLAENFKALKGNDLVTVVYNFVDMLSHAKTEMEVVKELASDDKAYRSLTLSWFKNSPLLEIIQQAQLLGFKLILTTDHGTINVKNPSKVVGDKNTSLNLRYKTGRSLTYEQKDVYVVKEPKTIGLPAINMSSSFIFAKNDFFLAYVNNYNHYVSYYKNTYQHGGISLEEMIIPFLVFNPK

[2] = molecular target: T2, PorXFJ (Flavobacterium johnsoniae, UniProt A5FFU4); details: phosphate analogue; bound at REC phosphorylation site (Asp54) and at APS catalytic site near Thr271; primitive orthorhombic crystal form
T2 construct: gene Fjoh_2906
T2 sequence (A5FFU4 1-517): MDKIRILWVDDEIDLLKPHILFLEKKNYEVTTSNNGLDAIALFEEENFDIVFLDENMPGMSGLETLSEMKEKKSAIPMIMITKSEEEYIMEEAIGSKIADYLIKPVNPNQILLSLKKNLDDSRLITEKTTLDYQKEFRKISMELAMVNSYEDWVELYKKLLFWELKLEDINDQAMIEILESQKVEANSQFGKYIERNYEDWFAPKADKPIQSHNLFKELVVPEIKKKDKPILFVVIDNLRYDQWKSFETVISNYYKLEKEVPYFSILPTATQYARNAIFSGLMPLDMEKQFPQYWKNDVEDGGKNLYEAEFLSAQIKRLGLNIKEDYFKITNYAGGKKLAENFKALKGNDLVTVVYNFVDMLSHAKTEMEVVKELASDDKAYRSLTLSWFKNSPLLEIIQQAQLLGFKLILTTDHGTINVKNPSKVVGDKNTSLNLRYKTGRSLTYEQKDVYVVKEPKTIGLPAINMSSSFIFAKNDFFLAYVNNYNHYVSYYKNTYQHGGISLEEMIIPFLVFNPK

[3] = molecular target: the molecule itself; experiment: SEC; protein incubated with zinc only (no AcP); Superdex200inc 10/300 GL for wild type and point mutants, Superdex75inc 10/300 GL for truncations; monomer to dimer
[4] = molecular target: the molecule itself; experiment: SEC; protein incubated with acetyl phosphate (AcP) in the presence of magnesium; Superdex200inc 10/300 GL for wild type and point mutants, Superdex75inc 10/300 GL for truncations; monomer to dimer
[5] = molecular target: the molecule itself; experiment: as above; remark: listed apart in the source
[6] = molecular target: the molecule itself; experiment: SEC; protein incubated with zinc only (no AcP); Superdex200inc 10/300 GL for wild type and point mutants, Superdex75inc 10/300 GL for truncations; monomer to dimer; remark: listed apart in the source

In the case of `O=[N+]([O-])c1ccc(OP(=O)(O)Oc2ccc([N+](=O)[O-])cc2)cc1` [bis(p-nitrophenyl) phosphate], the phosphodiesterase assay [1] is reported as “full-length PorXFJ and the THB + APS truncation mutant”.

In the case of `[F][Be-]([F])[F]` [BeF3], the X-ray co-crystal structure [2] is reported as “we have co-crystallized PorXFJ with the phosphate analog, BeF3”.

B1: PorXFJ APS + THB domains (126–end) (domain or fragment, UniProt A5FFU4 126-517, looked up)
chain: T1 sequence (A5FFU4 126-517)
notes: also called THB + APS truncation mutant; THB + APS domains; source: E. coli BL21, purified (Ni-NTA, thrombin cleavage, SEC); not shown: 10x-His, N-terminal, cleaved
B1: binds [3].

B2: PorXFJ REC + THB domains (1–208) (domain or fragment, UniProt A5FFU4 1-208, looked up)
chain: MDKIRILWVDDEIDLLKPHILFLEKKNYEVTTSNNGLDAIALFEEENFDIVFLDENMPGMSGLETLSEMKEKKSAIPMIMITKSEEEYIMEEAIGSKIADYLIKPVNPNQILLSLKKNLDDSRLITEKTTLDYQKEFRKISMELAMVNSYEDWVELYKKLLFWELKLEDINDQAMIEILESQKVEANSQFGKYIERNYEDWFAPKADK
notes: also called REC + THB domains truncated variant; source: E. coli BL21, purified (Ni-NTA, thrombin cleavage, SEC); not shown: 10x-His, N-terminal, cleaved
B2: binds [3].

B3: PorXFJ REC domain (1–121) (domain or fragment, UniProt A5FFU4 1-121, looked up)
chain: MDKIRILWVDDEIDLLKPHILFLEKKNYEVTTSNNGLDAIALFEEENFDIVFLDENMPGMSGLETLSEMKEKKSAIPMIMITKSEEEYIMEEAIGSKIADYLIKPVNPNQILLSLKKNLDD
notes: also called REC domain only truncation variant; source: E. coli BL21, purified (Ni-NTA, thrombin cleavage, SEC); not shown: 10x-His, N-terminal, cleaved
B3: binds [4].

B4: PorX from Flavobacterium johnsoniae (PorXFJ), wild type, full length (natural protein, UniProt A5FFU4 1-517, looked up)
chain: T2 sequence (A5FFU4 1-517)
notes: also called WT; Fjoh_2906; source: E. coli BL21, purified (Ni-NTA, thrombin cleavage, SEC); not shown: 10x-His, N-terminal, cleaved
B4: binds [5].

B5: PorXFJ D360A/H364A double mutant (zinc coordination, Zn1 site) (natural protein, UniProt A5FFU4 1-517, looked up)
chain: T2 sequence (A5FFU4 1-517) with D360A, H364A
notes: source: E. coli BL21, purified (Ni-NTA, thrombin cleavage, SEC); not shown: 10x-His, N-terminal, cleaved
B5: binds [4].

B6: PorXFJ T271V (APS domain catalytically inactive mutant) (natural protein, UniProt A5FFU4 1-517, looked up)
chain: T2 sequence (A5FFU4 1-517) with T271V
notes: as for B5
B6: binds [4].

B7: PorXFJ S384A/S388E double mutant (APS domain dimerization interface) (natural protein, UniProt A5FFU4 1-517, looked up)
chain: T2 sequence (A5FFU4 1-517) with S384A, S388E
notes: also called S348A/S388E (as printed once); source: E. coli BL21, purified (Ni-NTA, thrombin cleavage, SEC); not shown: 10x-His, N-terminal, cleaved
B7: binds [4].

B8: PorXFJ D54A (REC domain phosphorylation-null mutant) (natural protein, UniProt A5FFU4 1-517, looked up)
chain: T2 sequence (A5FFU4 1-517) with D54A
notes: as for B5
B8: binds [6].

B9: PorXFJ L113E (REC domain dimerization interface mutant) (natural protein, UniProt A5FFU4 1-517, looked up)
chain: T2 sequence (A5FFU4 1-517) with L113E
notes: as for B5
B9: binds [6].
